These results are taken from paper PMC9490039 (iScience, 2022).

This experiment deals with Kv7.2 wt (wild-type Kv7.2 channel subunit), tagged with EGFP or with mKate2 (human, UniProt O43526-1 1-872). Description: FRET or BRET. Background: BRET reads energy transfer from a luciferase to a nearby fluorophore.

B1: Kv7.2mut-EGFP (Kv7.2 with in-frame deletion of histidine 260) (natural protein)
chain: MVQKSRNGGVYPGPSGEKKLKVGFVGLDPGAPDSTRDGALLIAGSEAPKRGSILSKPRAGGAGAGKPPKRNAFYRKLQNFLYNVLERPRGWAFIYHAYVFLLVFSCLVLSVFSTIKEYEKSSEGALYILEIVTIVVFGVEYFVRIWAAGCCCRYRGWRGRLKFARKPFCVIDIMVLIASIAVLAAGSQGNVFATSALRSLRFLQILRMIRMDRRGGTWKLLGSVVYAHSKELVTAWYIGFLCLILASFLVYLAEKGENDFDTYADALWWGLITLTTIGYGDKYPQTWNGRLLAATFTLIGVSFFALPAGILGSGFALKVQEQHRQKHFEKRRNPAAGLIQSAWRFYATNLSRTDLHSTWQYYERTVTVPMYSSQTQTYGASRLIPPLNQLELLRNLKSKSGLAFRKDPPPEPSPSKGSPCRGPLCGCCPGRSSQKVSLKDRVFSSPRGVAAKGKGSPQAQTVRRSPSADQSLEDSPSKVPKSWSFGDRSRARQAFRIKGAASRQNSEEASLPGEDIVDDKSCPCEFVTEDLTPGLKVSIRAVCVMRFLVSKRKFKESLRPYDVMDVIEQYSAGHLDMLSRIKSLQSRVDQIVGRGPAITDKDRTKGPAEAELPEDPSMMGRLGKVEKQVLSMEKKLDFLVNIYMQRMGIPPTETEAYFGAKEPEPAPPYHSPEDSREHVDRHGCIVKIVRSSSSTGQKNFSAPPAAPPVQCPPSTSWQPQSHPRQGHGTSPVGDHGSLVRIPPPPAHERSLSAYGGGNRASMEFLRQEDTPGCRPPEGNLRDSDTSISIPSVDHEELERSFSGFSISQSKENLDALNSCYAAVAPCAKVRPYIAEGESDTDSDLCTPCGPPPRSATGEGPFGDVGWAGPRK
Consider B1, for which the “increase of EGFP intensity after photobleaching mKate2 (FRET)” value turned out to be 12.1%.
